Reference: the Immune Epitope Database (IEDB)

Key:
HLA-B*44:02 [1] = experiment: IEDB peptide-MHC binding, purified MHC/competitive/radioactivity; filed as Kd, often an IC50 or EC50 that approximates it; ≥ and ≤ were set here for values at or beyond the usual limits of such assays
HLA-B*40:01 [2] = experiment: as above
HLA-B*40:02 = experiment: as above
HLA-B*18:01 [3] = experiment: as above
HLA-B*45:01 = experiment: as above
HLA-B*44:03 = experiment: as above
HLA-A*69:01 = experiment: IEDB peptide-MHC binding, purified MHC/direct/fluorescence; filed as Kd, often an IC50 or EC50 that approximates it; ≥ and ≤ were set here for values at or beyond the usual limits of such assays
HLA-B*15:01 [4] = experiment: as above
HLA-B*44:02 [5] = experiment: as above
HLA-A*11:01 [6] = experiment: as above
HLA-B*58:01 = experiment: as above
HLA-B*15:09 = experiment: as above
HLA-A*24:02 [7] = experiment: as above
HLA-B*40:01 [8] = experiment: as above
HLA-B*18:01 [9] = experiment: as above; conditions: source organism: Giardia lamblia ATCC 50803
HLA-B*08:02 = experiment: as above
HLA-B*07:02 = experiment: as above
HLA-B*27:05 = experiment: as above
HLA-A*01:01 [10] = experiment: as above
HLA-A*31:01 = experiment: as above
HLA-A*03:01 = experiment: as above
HLA-B*15:01 [11] = experiment: IEDB peptide-MHC binding, purified MHC/competitive/fluorescence; ≥ and ≤ were set here for values at or beyond the usual limits of such assays
HLA-A*11:01 [12] = experiment: as above; conditions: source organism: Vaccinia virus Copenhagen
HLA-A*24:02 [13] = experiment: as above; conditions: source organism: Vaccinia virus Copenhagen
HLA-A*01:01 [14] = experiment: IEDB peptide-MHC binding, purified MHC/competitive/fluorescence; filed as Kd, often an IC50 or EC50 that approximates it; ≥ and ≤ were set here for values at or beyond the usual limits of such assays
HLA-B*35:01 = experiment: as above
HLA-A*02:01 [15] = experiment: IEDB peptide-MHC binding, purified MHC/competitive/fluorescence; ≥ and ≤ were set here for values at or beyond the usual limits of such assays; conditions: source organism: Zaire ebolavirus
HLA-A*02:01 [16] = experiment: IEDB peptide-MHC binding, purified MHC/direct/fluorescence; filed as Kd, often an IC50 or EC50 that approximates it; ≥ and ≤ were set here for values at or beyond the usual limits of such assays; conditions: source organism: Influenza A virus (A/mallard/NZ/1/97(H5N2))
HLA-B*46:01 = experiment: as above; conditions: source organism: Influenza A virus (A/mallard/NZ/1/97(H5N2))
HLA-A*26:01 = experiment: as above; conditions: source organism: Influenza A virus(A/swine/Shandong/fZC/2003(H9N2))
HLA-B*08:01 = experiment: as above; conditions: source organism: Influenza A virus (A/mallard/NZ/1/97(H5N2))
[17] = source organism: Mammarenavirus juninense
[18] = source organism: Giardia lamblia ATCC 50803
[19] = source organism: SARS coronavirus Tor2
[20] = source organism: Bacillus anthracis str. A2012
[21] = source organism: Mammarenavirus lassaense
[22] = source organism: Influenza A virus (A/mallard/NZ/1/97(H5N2))
[23] = source organism: Influenza A virus(A/swine/Shandong/fZC/2003(H9N2))

Sequence: EELSMMYESL
- Kd (HLA-B*44:02 [1]; [17]): 1.48 µM
- Kd (HLA-B*40:01 [2]; [17]): 0.899 µM
- Kd (HLA-B*40:02; [17]): 0.106 µM
- Kd (HLA-B*18:01 [3]; [17]): 1.34 µM
- Kd (HLA-B*45:01; [17]): 1.9 µM
- Kd (HLA-B*44:03; [17]): 1.85 µM

Sequence: YIASIFMPR
- Kd (HLA-A*69:01; [18]): ≥ 20 µM
- Kd (HLA-B*15:01 [4]; [18]): ≥ 20 µM
- Kd (HLA-B*44:02 [5]; [18]): ≥ 20 µM
- Kd (HLA-A*11:01 [6]; [18]): 0.0448 µM
- Kd (HLA-B*58:01; [18]): ≥ 20 µM
- Kd (HLA-B*15:09; [18]): ≥ 20 µM
- Kd (HLA-A*24:02 [7]; [18]): ≥ 20 µM
- Kd (HLA-B*40:01 [8]; [18]): ≥ 20 µM
- Kd (HLA-B*18:01 [9]): ≥ 20 µM
- Kd (HLA-B*08:02; [18]): ≥ 20 µM
- Kd (HLA-B*07:02; [18]): ≥ 20 µM
- Kd (HLA-B*27:05; [18]): ≥ 20 µM
- Kd (HLA-A*01:01 [10]; [18]): ≥ 20 µM
- Kd (HLA-A*31:01; [18]): 0.011 µM
- Kd (HLA-A*03:01; [18]): 0.335 µM

Sequence: KDTPGGYCL
- Kd (HLA-B*44:02 [1]; [17]): ≥ 77.9 µM
- Kd (HLA-B*40:01 [2]; [17]): 11.9 µM
- Kd (HLA-B*40:02; [17]): 3.48 µM
- Kd (HLA-B*18:01 [3]; [17]): ≥ 61 µM
- Kd (HLA-B*45:01; [17]): 18.3 µM
- Kd (HLA-B*44:03; [17]): ≥ 78.1 µM

Sequence: SQMTSTFIM
- IC50 (HLA-B*15:01 [11]; source organism: Vaccinia virus Copenhagen): 1.75 µM
- IC50 (HLA-A*11:01 [12]): 1.59 µM
- IC50 (HLA-A*24:02 [13]): 2.16 µM

Sequence: HSNASTLLY
- Kd (HLA-A*01:01 [14]; source organism: Staphylococcus aureus subsp. aureus N315): 0.0025 µM

Sequence: AEYKLQQGTF
- Kd (HLA-B*44:02 [1]; [19]): 0.0288 µM
- Kd (HLA-B*40:01 [2]; [19]): 4.58 µM
- Kd (HLA-B*40:02; [19]): 0.02 µM
- Kd (HLA-B*18:01 [3]; [19]): 7.04 µM
- Kd (HLA-B*45:01; [19]): 0.0623 µM
- Kd (HLA-B*44:03; [19]): 0.0896 µM

Sequence: VETVSLAGSY
- Kd (HLA-B*44:02 [1]; [19]): 3.22 µM
- Kd (HLA-B*40:01 [2]; [19]): 17.7 µM
- Kd (HLA-B*40:02; [19]): ≥ 70.8 µM
- Kd (HLA-B*18:01 [3]; [19]): 1.68 µM
- Kd (HLA-B*45:01; [19]): 11.7 µM
- Kd (HLA-B*44:03; [19]): 1.29 µM

Sequence: ITTFFTFAY
- Kd (HLA-B*35:01; [20]): 0.192 µM
- Kd (HLA-A*01:01 [14]; [20]): 0.14 µM

Sequence: WASRELERF
- Kd (HLA-B*35:01; source organism: Human immunodeficiency virus 1): 0.0568 µM
- Kd (HLA-B*58:01; source organism: Human immunodeficiency virus type 1 BH10): 0.0275 µM

Sequence: KLTEAITAA
- IC50 (HLA-B*15:01 [11]; source organism: Zaire ebolavirus): ≥ 171 µM
- IC50 (HLA-A*02:01 [15]): 2.05 µM

Sequence: SDLDMLTQS
- Kd (HLA-B*44:02 [1]; [21]): ≥ 42.2 µM
- Kd (HLA-B*40:01 [2]; [21]): ≥ 24.7 µM
- Kd (HLA-B*40:02; [21]): 6.1 µM
- Kd (HLA-B*18:01 [3]; [21]): ≥ 77.5 µM
- Kd (HLA-B*45:01; [21]): ≥ 77.7 µM
- Kd (HLA-B*44:03; [21]): ≥ 78.1 µM

Sequence: IAGFIEGGW
- Kd (HLA-A*69:01; [22]): ≥ 20 µM
- Kd (HLA-B*15:01 [4]; [22]): ≥ 20 µM
- Kd (HLA-B*44:02 [5]; [22]): ≥ 20 µM
- Kd (HLA-A*11:01 [6]; [22]): ≥ 20 µM
- Kd (HLA-A*02:01 [16]): ≥ 20 µM
- Kd (HLA-B*58:01; [22]): 0.0654 µM
- Kd (HLA-B*15:09; [23]): ≥ 20 µM
- Kd (HLA-A*24:02 [7]; [22]): ≥ 20 µM
- Kd (HLA-B*46:01): ≥ 20 µM
- Kd (HLA-B*40:01 [8]; [22]): ≥ 20 µM
- Kd (HLA-B*08:02; [23]): ≥ 20 µM
- Kd (HLA-A*26:01): ≥ 20 µM
- Kd (HLA-B*08:01): ≥ 20 µM
- Kd (HLA-B*07:02; [22]): ≥ 20 µM
- Kd (HLA-B*27:05; [22]): ≥ 20 µM
- Kd (HLA-A*01:01 [10]; [22]): ≥ 20 µM
- Kd (HLA-A*31:01; [22]): ≥ 20 µM
- Kd (HLA-A*03:01; [22]): ≥ 20 µM
